Results: patent US20230265198A1 (TWIST BIOSCIENCE, published 2023)
Residue numbers refer to the chain shown, from its start.

B1: NRP1-118 (antibody, IgG2, V domains shown)
VH: EVQLLESGGGLVQPGGSLRLSCAASGFTFNKYPMMWVRQAPGKGLEWVSRISVAGRRTAYADSVKGRFTISRDNSKNTLYLQMNSLRAEDTAVYYCAKWRREGYTGSKFDYWGQGTLVTVSS
VL: DIQMTQSPSSLSASVGDRVTITCSASQDINKYLNWYQQKPGKAPKLLIYGTSNLESGVPSRFSGSGSGTDFTLTISSLQPEDFATYYCHTWDHHHTTGEHNVFGQGTKVEIK
B2: NRP1-25 (VHH)
VHH: EVQLVESGGGLVQPGGSLRLSCAASGRTSNIYAMGWFRQAPGKERELVAAIRWSGVETYYADSVKGRFTISADNSKNTAYLQMNSLKPEDTAVYYCAADRMYRPVGNQYDWGQGTLVTVSS
B3: NRP1-8 (VHH)
VHH: EVQLVESGGGLVQPGGSLRLSCAASGFPLDDYAMGWFRQAPGKEREFVAAINWSGGSAVYADSVKGRFTISADNSKNTAYLQMNSLKPEDTAVYYCMRGGSYGDYGGYWGQGTLVTVSS
B4: NRP1-125 (antibody, IgG2, V domains shown)
VH: EVQLLESGGGLVQPGGSLRLSCAASGFTFSGYDMQWVRQAPGKGLEWVSSISGYGSTTYYADSVKGRFTISRDNSKNTLYLQMNSLRAEDTAVYYCAKGRRIFDYWGQGTLVTVSS
VL: DIQMTQSPSSLSASVGDRVTITCRASQTIERRLNWYQQKPGKAPKLLIYRKSNRPSGVPSRFSGSGSGTDFTLTISSLQPEDFATYYCQQNNNWPTTFGQGTKVEIK
B5: NRP1-115 (antibody, IgG2, V domains shown)
VH: EVQLLESGGGLVQPGGSLRLSCAASGFTFGHYEMDWVRQAPGKGLEWVSSIDDRGRYTYYADSVKGRFTISRDNSKNTLYLQMNSLRAEDTAVYYCARSKIAFDYWGQGTLVTVSS
VL: DIQMTQSPSSLSASVGDRVTITCRASQNIRSYLNWYQQKPGKAPKLLIYGRNKRPSGVPSRFSGSGSGTDFTLTISSLQPEDFATYYCQQSYENPLTFGQGTKVEIK
B6: NRP1-6 (VHH)
VHH: EVQLVESGGGLVQPGGSLRLSCAASGLTYTMNWFRQAPGKEREFVAGFAGIGTVTSYADSVKGRFTISADNSKNTAYLQMNSLKPEDTAVYYCSGFDGYSGSDWGQGTLVTVSS
B7: NRP1-34 (VHH)
VHH: EVQLVESGGGLVQPGGSLRLSCAASGYTYRKYCMGWFRQAPGKEREWVAAISRSGNLKSYADSVKGRFTISADNSKNTAYLQMNSLKPEDTAVYYCAIKRWPVDTRRRRDMVVGCPGRDEYEWGQGTLVTVSS
B8: NRP1-55 (VHH)
VHH: EVQLVESGGGLVQPGGSLRLSCAASGFTLDYYVMGWFRQAPGKEREWVAFISGSGSKFYADSVKGRFTISADNSKNTAYLQMNSLKPEDTAVYYCVIQHFWSGYDDDYWGQGTLVTVSS
B9: NRP1-60 (VHH)
VHH: EVQLVESGGGLVQPGGSLRLSCAASGNIFINNAMGWFRQAPGKERELVAAISGRSGNTYYADSVKGRFTISADNSKNTAYLQMNSLKPEDTAVYYCAARRIVNVEGAYRDWGQGTLVTVSS
B10: NRP1-56 (VHH)
VHH: EVQLVESGGGLVQPGGSLRLSCAASGRTFSSYRMGWFRQAPGKEREFVASIRSSGTTYADSVKGRFTISADNSKNTAYLQMNSLKPEDTAVYYCARDTLGRASSSTDWGQGTLVTVSS
B11: NRP1-36 (VHH)
VHH: EVQLVESGGGLVQPGGSLRLSCAASGFPVNRYSMGWFRQAPGKEREFVATITVGGSTYYADSVKGRFTISADNSKNTAYLQMNSLKPEDTAVYYCARQFGAWLGEVVGPMDVWGQGTLVTVSS
B12: NRP1-42 (VHH)
VHH: EVQLVESGGGLVQPGGSLRLSCAASGRTISNYDMGWFRQAPGKEREWVASINWGDGNTYYADSVKGRFTISADNSKNTAYLQMNSLKPEDTAVYYCARAPTYYYDSSGYYYAYWGQGTLVTVSS
B13: NRP1-63 (VHH)
VHH: EVQLVESGGGLVQPGGSLRLSCAASGTFGSYTMGWFRQAPGKERELVATIWWTFDAPYYADSVKGRFTISADNSKNTAYLQMNSLKPEDTAVYYCAAYQAGWGDWGQGTLVTVSS
B14: NRP1-64 (VHH)
VHH: EVQLVESGGGLVQPGGSLRLSCAASGSTFRGAAMGWFRQAPGKEREWVGTISSDGTTKYADSVKGRFTISADNSKNTAYLQMNSLKPEDTAVYYCAADRVLYYSDSRYYTGSNWGQGTLVTVSS
B15: NRP1-31 (VHH)
VHH: EVQLVESGGGLVQPGGSLRLSCAASGLTFRRYDMGWFRQAPGKERELVAIKFSGGSTRYADSVKGRFTISADNSKNTAYLQMNSLKPEDTAVYYCATSSGRVPAALNWGQGTLVTVSS
B16: NRP1-32 (VHH)
VHH: B15 VHH with K51I, S70I, S74N, T90N
B17: NRP1-54 (VHH)
VHH: EVQLVESGGGLVQPGGSLRLSCAASGIAFRIRTMGWFRQAPGKEREFVAGISRSGASTAYADSVKGRFTISADNSKNTAYLQMNSLKPEDTAVYYCAARRIVNVEGAYRDWGQGTLVTVSS
B18: NRP1-66 (VHH)
VHH: EVQLVESGGGLVQPGGSLRLSCAASGRTFRPYRMGWFRQAPGKERELVAAITSGTHKDYADSVKGRFTISADNSKNTAYLQMNSLKPEDTAVYYCAADYSGSYTSLWSRPERLWGQGTLVTVSS
B19: NRP1-73 (VHH)
VHH: EVQLVESGGGLVQPGGSLRLSCAASGFTFSGNWMGWFRQAPGKERELVAVILRGGSTNYADSVKGRFTISADNSKNTAYLQMNSLKPEDTAVYYCAVKIYSGSYSSPPGYNWGQGTLVTVSS
B20: NRP1-69 (VHH)
VHH: EVQLVESGGGLVQPGGSLRLSCAASGFNFNWYPMGWFRQAPGKEREWVGTINSGGSTSYADSVKGRFTISADNSKNTAYLQMNSLKPEDTAVYYCARLPPRGSYYYYYYGMDVWGQGTLVTVSS
B21: NRP1-68 (VHH)
VHH: EVQLVESGGGLVQPGGSLRLSCAASGNIFINNAMGWFRQAPGKERELVAAITSSSGRRWYADSVKGRFTISADNSKNTAYLQMNSLKPEDTAVYYCTTDRWYSSNWWGQGTLVTVSS
B22: NRP1-39 (VHH)
VHH: EVQLVESGGGLVQPGGSLRLSCAASGRTFSGDVMGWFRQAPGKEREFVAAINYSGRSINYADSVKGRFTISADNSKNTAYLQMNSLKPEDTAVYYCARETLWLKRYWGQGTLVTVSS
B23: NRP1-30 (VHH)
VHH: EVQLVESGGGLVQPGGSLRLSCAASGRTLSSYNMGWFRQAPGKEREFVARIWPGGGTTYADSVKGRFTISADNSKNTAYLQMNSLKPEDTAVYYCARDYFGSGSYYDWGQGTLVTVSS
B24: NRP1-38 (VHH)
VHH: EVQLVESGGGLVQPGGSLRLSCAASGFTFGSTTMGWFRQAPGKEREFVATMRWSTGSTVYADSVKGRFTISADNSKNTAYLQMNSLKPEDTAVYYCAVRGDWWAYWTPWGQGTLVTVSS
B25: NRP1-52 (VHH)
VHH: EVQLVESGGGLVQPGGSLRLSCAASGFTFSWYPMGWFRQAPGKEREFVAAISPSGSTDYADSVKGRFTISADNSKNTAYLQMNSLKPEDTAVYYCARDPNYDFWSGYYSSEHYFDYWGQGTLVTVSS
B26: NRP1-67 (VHH)
VHH: EVQLVESGGGLVQPGGSLRLSCAASGLYLHSSAMGWFRQAPGKEREFVAAISSSDGSTEYADSVKGRFTISADNSKNTAYLQMNSLKPEDTAVYYCASVRYYDYWSGYYTPTHAGYFESWGQGTLVTVSS
B27: NRP1-40 (VHH)
VHH: EVQLVESGGGLVQPGGSLRLSCAASGSITSFNAMGWFRQAPGKERELVASINWSGARTLYADSVKGRFTISADNSKNTAYLQMNSLKPEDTAVYYCASARYYGSGRHFDYWGQGTLVTVSS
B28: NRP1-5 (VHH)
VHH: EVQLVESGGGLVQPGGSLRLSCAASGNIDRLYVMGWFRQAPGKEREFVAAINWSSGTTVYADSVKGRFTISADNSKNTAYLQMNSLKPEDTAVYYCARSYSSLFRFDYWGQGTLVTVSS
B29: NRP1-57 (VHH)
VHH: EVQLVESGGGLVQPGGSLRLSCAASGFTFSNSGMGWFRQAPGKERELVARITRGGRTYADSVKGRFTISADNSKNTAYLQMNSLKPEDTAVYYCAARRIVNVEGAYRDWGQGTLVTVSS

The binders below were run against neuropilin-1 (NRP1), analyte in SPR (UniProt O14786 22-644, limits assumed) (assay: SPR, Carterra LSA, antibody coupled).
Procedure: SPR experiments were performed on a Carterra LSA SPR biosensor equipped with a HC30M chip at 25° C. in HBS-TE. Antibodies were diluted to 10 μg/mL and amine-coupled to the sensor chip by EDC/NHS activation, followed by ethanolamine HCl quenching. Increasing concentrations of analyte were flowed over the sensor chip in HBS-TE with 0.5 mg/mL BSA with 5-minute association and 15-minute dissociation. Following each injection cycle the surface was regenerated with 2× 30-second injections of IgG elution buffer (Thermo). Data were analyzed in Carterra's Kinetics Tool software with 1:1 binding model.

B1: no binding.
B4: no binding.
B6: no binding.

In order of falling Kd:
1. B2  831 nM
2. B3  91.1 nM
3. B5  87.4 nM

In order of rising koff:
1. B3  0.00283 s⁻¹
2. B5  0.00951 s⁻¹
3. B2  0.00969 s⁻¹

In order of rising kon:
1. B2  11700 M⁻¹ s⁻¹
2. B3  31100 M⁻¹ s⁻¹
3. B5  109000 M⁻¹ s⁻¹

Each binder was assayed against T1, neuropilin-1 (NRP1) on HEK293 cells overexpressing NRP1 (UniProt O14786 22-923, limits assumed) (assay: flow cytometry, HEK293-NRP1 vs HEK293).
T1 construct: whole, on cells

In order of falling “100 nM FACS (MFI Ratio)” value:
1. B7  612
2. B23  40.2
3. B27  16.7
4. B28  14.8
5. B25  10.7
6. B24  10.5
7. B2  8.9
8. B13  8.3
9. B20  8.2
10. B19  5.9
11. B15  5.7
12. B22  5.6
13. B10  5.4
14. B21  4.9
15. B1  4.5
16. B12  4
17. B3  3.1
18. B11  3
19. B8  2.7
20. B26  2.1
21. B18  1.1
22. B9  1
23. B14  0.8
24. B5  0.8
25. B17  0.6
26. B4  0.6
27. B6  0.5
28. B16  0.3
29. B29  0.1
